Literature values in paper PMC12524660.

Molecular target: Cys156 (UniProt position 156, VSNASCTTNCL)

## Cytosolic NAD-dependent glyceraldehyde-3-phosphate dehydrogenase C1 (GAPC1) (Arabidopsis thaliana)
  pKa: below pH 6
